Data from publication PMC11161652, “ASXLs binding to the PHD2/3 fingers of MLL4 provides a mechanism for the recruitment of BAP1 to active enhancers” (Nature Communications, 2024).

Experiments:
MLL3/4 complexes = test: Tandem affinity purification: interaction with MLL3/4 complexes; format: cell-based, human; conditions: K562 soluble nuclear extracts, 3Flag-2Strep tag, western blot and mass spectrometry
Experimental: (§1) Isogenic K562 cell lines expressing 3xFlag2xStrep-tagged ASXL2 WT and ΔMBH (aa 650-670), were generated by integration at the AAVS1 safe harbor locus after DSB induction and recombination targeted by co-transfection with a ZFN expression plasmid, as previously described. 2 × 10^5 cells were transfected with 400 ng of ZFN expression vector and 4 μg of donor constructs. Selection and cloning were performed in RPMI medium supplemented with 0.5 μg/mL puromycin starting 2–3 days post transfection. Clones were obtained by limiting dilution and expanded before harvest for western blot analysis.
(§2) For purification of native complexes, after large-scale expansion of K562 clones, affinity purifications of tagged ASXL2 WT and ΔMBH (aa 650-670) were performed on nuclear extracts as previously described. Briefly, nuclear extracts were prepared following standard procedures and pre-cleared with CL6B Sepharose beads. […] Typically, 5–15 μl of the elutions (1–3% of total) was loaded on NuPAGE 4–12% Bis-Tris gels (Invitrogen) and analyzed by silver staining and western blots. […] Purified fractions were prepared and analyzed at the Proteomics Platform of the Quebec Genomic Center using an Orbitrap Fusion mass spectrometer (Thermo Fisher Scientific) as previously described. […]

GST-MLL4PHD2/3 = test: GST pull-down, WT MLL4PHD2/3; format: binding, human; conditions: WT GST-MLL4PHD2/3; HEK293FT lysate, 3 h at 4 °C, western blot; n = 3
Experimental: (§3) Pull-down assays were performed by mixing resin-bound GST-MLL3PHD2/3 and GST-MLL4PHD2/3 (wild type and mutants) with lysates of HEK293FT expressing Myc-ASXL1, Myc-ASXL2 or Myc-ASXL2ΔMBH. Pellets of HEK293FT cells transfected with the appropriate pDEST expression construct (15 μg/dish using polyethylenimine (PEI)) were lysed with 10 times their volume of lysis buffer (50 mM Tris pH 7.3, 100 mM NaCl, 1 mM DTT, 1 mM EDTA, 1 mM PMSF, 0.1% Tween20, 1/100 anti-protease (Sigma)) and sonicated with a probe sonicator (Branson digital sonifier 450) calibrated at 40% amplitude for 3–4 rounds during 40–60 s. Lysates were then centrifuged in a Sorvall Lynx 6000 (rotor: F21-8x50Y) at 15,000 RPM during 20 min. Approximatively 9 μg of purified GST-fusion proteins bound to GSH resin (Sigma, G4510) were used for each condition. Final volume of GSH resin was adjusted to 30 μl per condition with empty GSH beads and incubated with 1.5 mL of HEK293FT lysate expressing Myc-ASXL1, Myc-ASXL2 or Myc-ASXL2ΔMBH for 3 h at 4 °C on a rotative system. A fraction of the reaction mixture (80 μL) was collected as the input. After the incubation, beads were washed 5 times and mixed with 100 μL of Laemmli buffer. Samples were loaded on 8% or 15% SDS-acrylamide gels and processed for western blotting.

GST-MLL3PHD2/3 = test: GST pull-down, WT MLL3PHD2/3; format: binding, human; conditions: WT GST-MLL3PHD2/3; HEK293FT lysate, 3 h at 4 °C, western blot; n = 3
Experimental: as §3

[1] = test system: active enhancer upstream of GRHL2 gene in K562 ASXL2 KD cells; test: ChIP-qPCR at active enhancer upstream of GRHL2; format: cell-based, human; conditions: K562 ASXL2 KD cells complemented from AAVS1; IP/input corrected for total H3; three biological replicates
Source text: K562 cell lines with knocked down expression of endogenous ASXL2 were obtained after double infection of lentivirus expressing Cas9 and 4 different gRNAs targeting the end of exon 1 (pLENTI_CRISPR_V2, co-selection by FACS with GFP). Clone 1 L was selected (obtained with gRNA 1: 5′-[…]-3′ cutting at the very end of exon 1) for transfection of WT and DMBH ASXL2 vectors for integration and stable expression from the AAVS1 safe harbor, as described for the tagged K562 cell lines used for purification. Expression levels of endogenous ASXL2, WT and ΔMBH ASXL2 were monitored by running SDS-PAGE and transferring onto nitrocellulose membrane. Anti-FLAG M2 conjugated to horseradish peroxidase (A8592, Sigma) was used at 1:10,000 dilution and anti-ASXL2, at 1:2,000 (Cell Signaling (E623X), CS71257, lot:1). Immunoblots were visualized using a Western Lightning plus ECL reagent (Perkin-Elmer).
Crosslinked chromatin from K562 cells and immunoprecipitations were prepared as previously described. For chromatin immunoprecipitation, 100 μg of chromatin was incubated with 2 μg anti-H2AK119ub (Cell Signaling, 8240S, D27C4 lot:9) or 3 μg anti-H3 (Abcam, ab1791, lot GR3421644-1), 2 μg anti-H3Kme1 (Abcam, ab8895, lot GR442591-1), 2 μg anti-H3K27ac (Thermo Fisher, MA5-23516, lot: ZA4181671) or 0.3 μg anti-H3K27me3 (Cell Signaling, C36B11, 9733 S lot:19) antibodies overnight at 4 °C. 25 μl of Protein A Dynabeads were then added to each sample, and the mixtures were incubated at 4 °C for 4 h. The beads were washed extensively and eluted with 1% SDS and 0.1 M NaHCO3. Cross-linked samples were reversed by heating overnight at 65 °C in the presence of 0.2 M NaCl. Samples were then treated with RNase A and proteinase K for 2 h, and DNA was recovered using MinElute PCR purification Kit (Qiagen, 28004) according to the manufacturer’s instructions. Quantitative real-time PCR corrected for primer efficiencies in the linear range was performed using SYBR Green I (Roche, 04877352001) on a LightCycler 480 (Roche). Primers for 5′ end of active enhancer: Fwd: 5′-[…]; Rev: 5′-[…]; For 3′ end: Fwd: 5′-[…], Rev: 5′-[…].

[2] = test system: H3K4 (recombinant histone octamers or mono-nucleosomes); test: H3K4 histone methyltransferase assay; format: biochemical, human; conditions: purified complexes, 50 μM S-adenosyl-L-methionine, 8 h at 30 °C, n = 2
Experimental: Equivalent amounts of purified ASXL2 WT and ΔMBH complexes were incubated with 0.5 μg of reconstituted recombinant mono-nucleosomes or histone octamers as substrates. All HMT assays were performed in 50 mM Tris-HCl pH 8, 100 mM KCl, 5 mM MgCl2, 0.1 mM DTT, 10% glycerol in the presence of 50 μM S-adenosyl-L-methionine (Sigma, A7007). After an 8 h incubation at 30 °C, 4X Laemmli buffer was added, the samples run on 15% SDS-PAGE and transferred on nitrocellulose membrane. Immunoblotting was performed with an anti-H3K4me1 (Ab8895, rabbit polyclonal) diluted 1:1000 followed by HRP conjugated secondary goat anti-rabbit antibody (Sigma) used at a 1:10,000 dilution. The immunoblots were visualized using a Western Lightning plus-ECL reagent (Perkin-Elmer). Anti-H4 (Abcam, Ab7311, rabbit polyclonal) was used at a 1:2,500 dilution.

H2AK119 = H2AK119 deubiquitination assay; format: biochemical, human
Experimental: The deubiquitination reactions were done by adding equivalent amounts of ASXL2 WT or ΔMBH (4 μl E1-F) native complexes purified from K562 cells to 0.5 μg of chromatin enriched extracts from K562 cells, incubated at 37 °C in 50 mM Tris-HCl pH 7.3, 50 mM NaCl, 1 mM MgCl2, 1 mM DTT, 1 mM PMSF, 10 μg/ml Leupeptin, 10 μg/ml Pepstatin A, 25 μg/ml Aprotinin. After 3 or 6 h incubation, 4X Laemmli buffer was added, the samples run on 15% SDS-PAGE and transferred on nitrocellulose membrane. Immunoblotting was performed with an anti-H2AK119ub (Cell Signaling, D27C4, rabbit polyclonal) diluted 1:2000 followed by HRP conjugated secondary goat anti-rabbit antibody (Sigma) used at a 1:10,000 dilution. The immunoblots were visualized using a Western Lightning plus-ECL reagent (Perkin-Elmer). Anti-H3 (Abcam, Ab1791, rabbit polyclonal) was used at a 1:50,000 dilution.
Cell pellets were harvested 2 days post-transfection and lysed with 10 times their own volume with EB300 lysis buffer (50 mM Tris pH 7.3, 300 mM NaCl, 0.5% Triton X100 (V/V), 5 mM EDTA, 50 mM NaF, 1 mM Na3VO4 (activated), 10 mM Beta-glycerol-phosphate, 1 mM DTT, 1 mM PMSF, 1/100 anti-protease (Sigma)). Lysates were incubated on ice for 30 min before centrifugation in a Sorvall Lynx 6000 (rotor: F21-8x50Y) at 15,000 RPM during 20 min. Supernatants were collected and diluted with EB0 (50 mM Tris pH 7.3, 0.5% Triton X100 (V/V), 5 mM EDTA, 50 mM NaF, 1 mM Na3VO4, 10 mM Beta-glycerol-phosphate, 1 mM DTT, 1 mM PMSF, 1/100 anti-protease) to adjust the final concentration of NaCl to 150 mM. Agarose anti-FlagM2 beads (40 μL) (Sigma, A2220) were added to each lysate and incubated overnight at 4 °C on a rotative system. The next day, beads were washed 5 times with the wash buffer (50 mM Tris pH 7.3, 150 mM NaCl, 0.5% Triton X100 (V/V), 1/500 anti-protease, 1 mM DTT, 1 mM PMSF). […] Following three elutions of 2 h each, the pooled fractions were incubated with 40 μL of anti-HA beads (Sigma A2095) overnight at 4 °C on a rotative system. […]

PR-DUB complex = test: Tandem affinity purification: association with PR-DUB complex; format: cell-based, human; conditions: K562 soluble nuclear extracts, 3Flag-2Strep tag, western blot and mass spectrometry
Experimental: as §1, §2

B1: ASXL2ΔMBH: ΔMBH ASXL2 mutant lacking the MLL3/4-binding domain (aa 650-670) (protein)
chain: MREKGRRKKGRTWAEAAKTVLEKYPNTPMSHKEILQVIQREGLKEIRSGTSPLACLNAMLHTNSRGEEGIFYKVPGRMGVYTLKKDVPDGVKELSEGSEESSDGQSDSQSSENSSSSSDGGSNKEGKKSRWKRKVSSSSPQSGCPSPTIPAGKVISPSQKHSKKALKQALKQQQQKKQQQQCRPSISISSNQHLSLKTVKAASDSVPAKPATWEGKQSDGQTGSPQNSNSSFSSSVKVENTLLGLGKKSFQRSERLHTRQMKRTKCADIDVETPDSILVNTNLRALINKHTFSVLPGDCQQRLLLLLPEVDRQVGPDGLMKLNGSALNNEFFTSAAQGWKERLSEGEFTPEMQVRIRQEIEKEKKVEPWKEQFFESYYGQSSGLSLEDSKKLTASPSDPKVKKTPAEQPKSMPVSEASLIRIVPVVSQSECKEEALQMSSPGRKEECESQGEVQPNFSTSSEPLLSSALNTHELSSILPIKCPKDEDLLEQKPVTSAEQESEKNHLTTASNYNKSESQESLVTSPSKPKSPGVEKPIVKPTAGAGPQETNMKEPLATLVDQSPESLKRKSSLTQEEAPVSWEKRPRVTENRQHQQPFQVSPQPFLNRGDRIQVRKVPPLKIPVSRISPMPFHPSQVSPRARFPVSITSPRAAAAAAAAAAAAASVGGTIPGPGPGGGQGPGEGGEGQTARGGSPGSDRVSETGKGPTLELAGTGSRGGTRELLPCGPETQPQSETKTTPSQAQPHSVSGAQLQQTPPVPPTPAVSGACTSVPSPAHIEKLDNEKLNPTRATATVASVSHPQGPSSCRQEKAPSPTGPALISGASPVHCAADGTVELKAGPSKNIPNPSASSKTDASVPVAVTPSPLTSLLTTATLEKLPVPQVSATTAPAGSAPPSSTLPAASSLKTPGTSLNMNGPTLRPTSSIPANNPLVTQLLQGKDVPMEQILPKPLTKVEMKTVPLTAKEERGMGALIATNTTENSTREEVNERQSHPATQQQLGKTLQSKQLPQVPRPLQLFSAKELRDSSIDTHQYHEGLSKATQDQILQTLIQRVRRQNLLSVVPPSQFNFAHSGFQLEDISTSQRFMLGFAGRRTSKPAMAGHYLLNISTYGRGSESFRRTHSVNPEDRFCLSSPTEALKMGYTDCKNATGESSSSKEDDTDEESTGDEQESVTVKEEPQVSQSAGKGDTSSGPHSRETLSTSDCLASKNVKAEIPLNEQTTLSKENYLFTRGQTFDEKTLARDLIQAAQKQMAHAVRGKAIRSSPELFSSTVLPLPADSPTHQPLLLPPLQTPKLYGSPTQIGPSYRGMINVSTSSDMDHNSAVPGSQVSSNVGDVMSFSVTVTTIPASQAMNPSSHGQTIPVQAFSEENSIEGTPSKCYCRLKAMIMCKGCGAFCHDDCIGPSKLCVSCLVVR
modifications: left off: 3xFlag, end not stated, kept | 2xStrep, end not stated, kept
interaction with MLL3/4 complexes (MLL3/4 complexes): abrogated the interaction between ASXL2 and MLL3/4 in vivo
association in pull-down (GST-MLL4PHD2/3): essentially abolished
association in pull-down (GST-MLL3PHD2/3): essentially abolished
H2AK119ub level [1]: not the ΔMBH ASXL2 mutant led to a decrease in H2AK119ub level
H3K4me1 level [1]: not affected
mono-methylation of H3K4 [2]: markedly decreased
deubiquitinase activity toward H2AK119Ub in vitro (H2AK119; BAP1/ASXL2 complexes from co-transfected HEK293FT cells, purified native nucleosomes, room temperature, n=2): does not affect
de-ubiquitination of H2AK119 (H2AK119; purified complexes on human chromatin, 37 °C, 3 or 6 h, immunoblot): efficient and equivalent de-ubiquitination of H2AK119
association with PR-DUB complex (PR-DUB complex): stably associates with the expected components of the PR-DUB complex
